In general, Kd refers to the free concentration of one partner at which half of the binding sites on the other are occupied at equilibrium, for simple one-to-one binding.

The test system of data set [1] is Type I-Fv Cascade (Cas5fv, His-Cas7fv, Cas6f, crRNA spacer4) (Shewanella putrefaciens CN-32). The experiment in a line: BLI. As to conditions: BLI buffer: SEC buffer (composition in Supplementary Table II, not in material) + 0.1 uM BSA + 0.01% Triton X-100, 100 nM biotinylated oligonucleotide loaded ….
Data set [2] relates to Type I-F Cascade (Cas8f, Cas5f, His-Cas7f, Cas6f, crRNA) (Shewanella baltica OS195). The experiment in a line: BLI. (In general: BLI is a label-free optical method that tracks binding on a fibre tip over time.)

With “CGCCGGTTATAGGTTTGCGCGTCTTGCTGGGCGATAGGACGTGGGATATCTTTTTGATATCCCACGTCCTATCGCCCAGCAAGACGCGCAAACCTATAACCGGCG (double strand) [Complementary (GG PAM)]”, the Kd in data set [1] was 46.5 nM; in data set [2] (BLI buffer: SEC buffer (composition in Supplementary Table II, not in material) + 0.1 uM BSA + 0.01% Triton X-100, 100 nM biotinylated oligonucleotide loaded …), 99.6 nM. The binding signal in data set [2] (BLI buffer: SEC buffer (composition in Supplementary Table II, not in material) + 0.1 uM BSA + 0.01% Triton X-100, 100 nM biotinylated oligonucleotide loaded …, scale: fold reduction of equilibrium binding level) was found to be 5.

Values taken from article PMC7266957.
